Molecular target: T1, B7H3 on Weri-RB1 cells (UniProt Q5ZPR3)
T1 sequence: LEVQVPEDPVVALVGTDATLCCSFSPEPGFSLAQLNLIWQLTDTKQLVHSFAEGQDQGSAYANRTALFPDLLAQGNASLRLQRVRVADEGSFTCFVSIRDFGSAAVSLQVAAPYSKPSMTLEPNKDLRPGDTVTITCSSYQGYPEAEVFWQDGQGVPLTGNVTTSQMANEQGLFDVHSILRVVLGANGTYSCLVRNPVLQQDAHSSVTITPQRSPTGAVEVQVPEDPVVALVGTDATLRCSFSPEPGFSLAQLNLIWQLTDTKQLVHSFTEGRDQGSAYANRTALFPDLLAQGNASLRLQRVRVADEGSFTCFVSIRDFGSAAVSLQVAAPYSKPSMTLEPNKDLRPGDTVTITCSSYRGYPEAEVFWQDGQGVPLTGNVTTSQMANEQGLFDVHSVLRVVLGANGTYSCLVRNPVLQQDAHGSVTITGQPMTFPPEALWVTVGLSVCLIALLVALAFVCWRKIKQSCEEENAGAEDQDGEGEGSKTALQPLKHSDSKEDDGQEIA
Test: flow cytometry
Conditions: FITC aptamer, ABB: AWB (composition not given) + 0.1 mg/ml yeast tRNA, 0.1 mg/ml salmon sperm DNA, 5% FBS, 1 mg/ml BSA, 60 min, 0-500 nM …, flow binding assay on ice, d

For “TAGGGAAGAGAAGGACATATGATTGCCCCTGACACTTACACGCCACTATCAAGGCACACGCCATTGACTAGTACATGACCACTT [VRF-HS_B7H3-04]”, the Kd was 51.4 nM.
“TAGGGAAGAGAAGGACATATGATCGCCCCTCTTTTCGATTTCAAGCTCCTAACCCACACCTCTTTGACTAGTACATGACCACTT [VRF-HS_B7H3-02]” showed a Kd of 47.2 nM.
“TAGGGAAGAGAAGGACATATGATATAAGTGACACATCAATCTCATGCGGATGAACCAGTGCGTTTGACTAGTACATGACCACTT [VRF-HS_B7H3-03]” was tested, and the Kd was 46.6 nM.
Work on “TAGGGAAGAGAAGGACATATGATTGAGAAGTCACGCCACTTACCTGCGCTCAAAACCTCAGAATTGACTAGTACATGACCACTT [VRF-HS_B7H3-05]” yielded a Kd of 50.6 nM.
“TAGGGAAGAGAAGGACATATGATACAGCACGGTATGACGAGTCCATTGTGTGTGCAGCTCGCTAATTGACTAGTACATGACCACTT [VRF-HS_B7H3-01]” gave a Kd of 32.1 nM.

Reference: publication PMC11169341
